In patent US20090022728A1:

Key:
Aβ1-42 peptide = test: ELISA, nonbiotinylated peptide on plate
Aβ1-40 peptide = test: ELISA, nonbiotinylated peptide on plate
Sequence of Aβ1-40 peptide (peptide, as listed by the source): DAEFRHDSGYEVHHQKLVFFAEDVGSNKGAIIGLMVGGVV

Sequence of Aβ1-42 peptide (peptide, as listed by the source): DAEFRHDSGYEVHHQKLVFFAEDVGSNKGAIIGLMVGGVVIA

| A450 ELISA (Aβ1-42 peptide) [A450] | A450 ELISA (Aβ1-40 peptide) [A450] | Binder |
| --- | --- | --- |
| 0.31 | 0.23 | 6G heavy chain variant 7D (N101C) (antibody, V domains shown) VH: QVQLVQSGAEVKKPGASVKVSCKASGYTFTTYAIHWVRQAPGQGLEWMGFTSPYSGVSNYNQKFKGRVTMTRDTSTSTVYMELSSLRSEDTAVYYCARFDCYDRGYVRDYWGQGTLVTVS VL: DIVMTQSPDSLAVSLGERATINCRASESVDNDRISFLNWYQQKPGQPPKLLIYAATKQGTGVPDRFSGSGSGTDFTLTISSLQAEDVAVYYCQQSKEFPWSFGGGTKVEIKR |
| 0.14 | – | 6G light chain variant 5B (Q94G) (antibody, V domains shown) VH: QVQLVQSGAEVKKPGASVKVSCKASGYTFTTYAIHWVRQAPGQGLEWMGFTSPYSGVSNYNQKFKGRVTMTRDTSTSTVYMELSSLRSEDTAVYYCARFDNYDRGYVRDYWGQGTLVTVS VL: DIVMTQSPDSLAVSLGERATINCRASESVDNDRISFLNWYQQKPGQPPKLLIYAATKQGTGVPDRFSGSGSGTDFTLTISSLQAEDVAVYYCQGSKEFPWSFGGGTKVEIKR |
| 0.18 | – | 6G light chain variant 7E (Q94R) (antibody, V domains shown) VH: QVQLVQSGAEVKKPGASVKVSCKASGYTFTTYAIHWVRQAPGQGLEWMGFTSPYSGVSNYNQKFKGRVTMTRDTSTSTVYMELSSLRSEDTAVYYCARFDNYDRGYVRDYWGQGTLVTVS VL: DIVMTQSPDSLAVSLGERATINCRASESVDNDRISFLNWYQQKPGQPPKLLIYAATKQGTGVPDRFSGSGSGTDFTLTISSLQAEDVAVYYCQRSKEFPWSFGGGTKVEIKR |
| – | 0.22 | 6G heavy chain variant 9E (N101R) (antibody, V domains shown) VH: QVQLVQSGAEVKKPGASVKVSCKASGYTFTTYAIHWVRQAPGQGLEWMGFTSPYSGVSNYNQKFKGRVTMTRDTSTSTVYMELSSLRSEDTAVYYCARFDRYDRGYVRDYWGQGTLVTVS VL: DIVMTQSPDSLAVSLGERATINCRASESVDNDRISFLNWYQQKPGQPPKLLIYAATKQGTGVPDRFSGSGSGTDFTLTISSLQAEDVAVYYCQQSKEFPWSFGGGTKVEIKR |
| – | 0.21 | 6G heavy chain variant 8H (N101H) (antibody, V domains shown) VH: QVQLVQSGAEVKKPGASVKVSCKASGYTFTTYAIHWVRQAPGQGLEWMGFTSPYSGVSNYNQKFKGRVTMTRDTSTSTVYMELSSLRSEDTAVYYCARFDHYDRGYVRDYWGQGTLVTVS VL: DIVMTQSPDSLAVSLGERATINCRASESVDNDRISFLNWYQQKPGQPPKLLIYAATKQGTGVPDRFSGSGSGTDFTLTISSLQAEDVAVYYCQQSKEFPWSFGGGTKVEIKR |
| 0.19 | – | 6G light chain variant 7F (Q94K) (antibody, V domains shown) VH: QVQLVQSGAEVKKPGASVKVSCKASGYTFTTYAIHWVRQAPGQGLEWMGFTSPYSGVSNYNQKFKGRVTMTRDTSTSTVYMELSSLRSEDTAVYYCARFDNYDRGYVRDYWGQGTLVTVS VL: DIVMTQSPDSLAVSLGERATINCRASESVDNDRISFLNWYQQKPGQPPKLLIYAATKQGTGVPDRFSGSGSGTDFTLTISSLQAEDVAVYYCQKSKEFPWSFGGGTKVEIKR |
| 0.2 | – | 6G light chain variant 6E (E97P) (antibody, V domains shown) VH: QVQLVQSGAEVKKPGASVKVSCKASGYTFTTYAIHWVRQAPGQGLEWMGFTSPYSGVSNYNQKFKGRVTMTRDTSTSTVYMELSSLRSEDTAVYYCARFDNYDRGYVRDYWGQGTLVTVS VL: DIVMTQSPDSLAVSLGERATINCRASESVDNDRISFLNWYQQKPGQPPKLLIYAATKQGTGVPDRFSGSGSGTDFTLTISSLQAEDVAVYYCQQSKPFPWSFGGGTKVEIKR |
| 0.12 | – | 6G light chain variant 10E (S95L) (antibody, V domains shown) VH: QVQLVQSGAEVKKPGASVKVSCKASGYTFTTYAIHWVRQAPGQGLEWMGFTSPYSGVSNYNQKFKGRVTMTRDTSTSTVYMELSSLRSEDTAVYYCARFDNYDRGYVRDYWGQGTLVTVS VL: DIVMTQSPDSLAVSLGERATINCRASESVDNDRISFLNWYQQKPGQPPKLLIYAATKQGTGVPDRFSGSGSGTDFTLTISSLQAEDVAVYYCQQLKEFPWSFGGGTKVEIKR |
